Assay results: the supplement of paper PMC10567573

B1: IMPA1 (parent)
chain: FIGEESVAAGEKSILTDNPTWIID

Variants of: B1
Test: protein stability index of a GFP-peptide fusion (GPS, HEK-293T) (PSI 1-6); higher = more stable
Conditions: c terminus: a fixed tail appended
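Further: lentivirally expressed fusions sorted by FACS into six bins by GFP to DsRed ratio, PSI derived from sequencing read proportions per bin multiplied by bin number.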

Row | Variant | protein stability index
1 | FIGEESVAAREKSILTDNPTWIID [G10R] | 1.97
2 | FIGEESVAASEKSILTDNPTWIID [G10S] | 2
3 | FIGEESVAATEKSILTDNPTWIID [G10T] | 2.19
4 | FIGEESVAAIEKSILTDNPTWIID [G10I] | 2.43
5 | FIGEPSVAAGEKSILTDNPTWIID [E5P] | 2.35
6 | FIGEMSVAAGEKSILTDNPTWIID [E5M] | 2.31
7 | FIGETSVAAGEKSILTDNPTWIID [E5T] | 2.38
8 | FIGEWSVAAGEKSILTDNPTWIID [E5W] | 1.29
9 | FIGEKSVAAGEKSILTDNPTWIID [E5K] | 1.88
10 | FIGEHSVAAGEKSILTDNPTWIID [E5H] | 1.93
11 | FIGELSVAAGEKSILTDNPTWIID [E5L] | 1.71
12 | FIGEGSVAAGEKSILTDNPTWIID [E5G] | 2.79
13 | FIGEQSVAAGEKSILTDNPTWIID [E5Q] | 2.38
14 | FIGECSVAAGEKSILTDNPTWIID [E5C] | 2.7
15 | FIGEVSVAAGEKSILTDNPTWIID [E5V] | 3.68
16 | FIGEISVAAGEKSILTDNPTWIID [E5I] | 3.46
17 | FIGEDSVAAGEKSILTDNPTWIID [E5D] | 1.89
18 | FIGERSVAAGEKSILTDNPTWIID [E5R] | 2
19 | FIGEASVAAGEKSILTDNPTWIID [E5A] | 2.05
20 | FIGEYSVAAGEKSILTDNPTWIID [E5Y] | 2.52
21 | FIGENSVAAGEKSILTDNPTWIID [E5N] | 1.53
22 | FIGEFSVAAGEKSILTDNPTWIID [E5F] | 3.35
23 | FIGESSVAAGEKSILTDNPTWIID [E5S] | 1.92
24 | FIGEESVAAGGKSILTDNPTWIID [E11G] | 1.96

Row | Variant | protein stability index
25 | FIGEESVAAGKKSILTDNPTWIID [E11K] | 1.89
26 | FIGEESVAAGRKSILTDNPTWIID [E11R] | 1.49
27 | FIGEESVAAGYKSILTDNPTWIID [E11Y] | 1.93
28 | FIGEESVAAGDKSILTDNPTWIID [E11D] | 2.3
29 | FIGEESVAAGLKSILTDNPTWIID [E11L] | 1.77
30 | FIGEESVAAGNKSILTDNPTWIID [E11N] | 2.04
31 | FIGEESVAAGQKSILTDNPTWIID [E11Q] | 1.98
32 | FIGEESVAAGCKSILTDNPTWIID [E11C] | 1.98
33 | FIGEESVAAGVKSILTDNPTWIID [E11V] | 1.92
34 | FIGEESVAAGSKSILTDNPTWIID [E11S] | 2.17
35 | FIGEESVAAGTKSILTDNPTWIID [E11T] | 2.3
36 | FIGEESVAAGMKSILTDNPTWIID [E11M] | 2.01
37 | FIGEESVAAGWKSILTDNPTWIID [E11W] | 1.37
38 | FIGEESVAAGAKSILTDNPTWIID [E11A] | 1.86
39 | FIGEESVAAGHKSILTDNPTWIID [E11H] | 1.7
40 | FIGEESVAAGFKSILTDNPTWIID [E11F] | 2.57
41 | FIGEESVAAGPKSILTDNPTWIID [E11P] | 1.53
42 | FIGEESVAAGIKSILTDNPTWIID [E11I] | 2.1
43 | FIGEESIAAGEKSILTDNPTWIID [V7I] | 1.92
44 | FIGEESYAAGEKSILTDNPTWIID [V7Y] | 2.01
45 | FIGEESHAAGEKSILTDNPTWIID [V7H] | 2.06
46 | FIGEESPAAGEKSILTDNPTWIID [V7P] | 2.19
47 | FIGEESEAAGEKSILTDNPTWIID [V7E] | 3.03
48 | FIGEESFAAGEKSILTDNPTWIID [V7F] | 2.05

Row | Variant | protein stability index
49 | FIGEESGAAGEKSILTDNPTWIID [V7G] | 2.15
50 | FIGEESWAAGEKSILTDNPTWIID [V7W] | 1.94
51 | FIGEESKAAGEKSILTDNPTWIID [V7K] | 2.53
52 | FIGEESCAAGEKSILTDNPTWIID [V7C] | 2
53 | FIGEESLAAGEKSILTDNPTWIID [V7L] | 2.25
54 | FIGEESRAAGEKSILTDNPTWIID [V7R] | 1.85
55 | FIGEESDAAGEKSILTDNPTWIID [V7D] | 2.71
56 | FIGEESMAAGEKSILTDNPTWIID [V7M] | 1.94
57 | FIGEESAAAGEKSILTDNPTWIID [V7A] | 2.46
58 | FIGEESNAAGEKSILTDNPTWIID [V7N] | 2.4
59 | FIGEESQAAGEKSILTDNPTWIID [V7Q] | 2.19
60 | FIGEESTAAGEKSILTDNPTWIID [V7T] | 2.28
61 | FIGEESSAAGEKSILTDNPTWIID [V7S] | 2.17
62 | FIGEESVAAGEKPILTDNPTWIID [S13P] | 2.02
63 | FIGEESVAAGEKGILTDNPTWIID [S13G] | 1.67
64 | FIGEESVAAGEKNILTDNPTWIID [S13N] | 1.98
65 | FIGEESVAAGEKKILTDNPTWIID [S13K] | 2.16
66 | FIGEESVAAGEKLILTDNPTWIID [S13L] | 1.95
67 | FIGEESVAAGEKEILTDNPTWIID [S13E] | 2.32
68 | FIGEESVAAGEKQILTDNPTWIID [S13Q] | 1.99
69 | FIGEESVAAGEKDILTDNPTWIID [S13D] | 2.44
70 | FIGEESVAAGEKCILTDNPTWIID [S13C] | 2.27
71 | FIGEESVAAGEKMILTDNPTWIID [S13M] | 1.73
72 | FIGEESVAAGEKAILTDNPTWIID [S13A] | 2.06

Row | Variant | protein stability index
73 | FIGEESVAAGEKFILTDNPTWIID [S13F] | 1.97
74 | FIGEESVAAGEKHILTDNPTWIID [S13H] | 1.96
75 | FIGEESVAAGEKIILTDNPTWIID [S13I] | 1.99
76 | FIGEESVTAGEKSILTDNPTWIID [A8T] | 2.13
77 | FIGEESVIAGEKSILTDNPTWIID [A8I] | 1.58
78 | FIGEESVQAGEKSILTDNPTWIID [A8Q] | 2.29
79 | FIGEESVVAGEKSILTDNPTWIID [A8V] | 2.52
80 | FIGEESVWAGEKSILTDNPTWIID [A8W] | 1.74
81 | FIGEESVPAGEKSILTDNPTWIID [A8P] | 2.54
82 | FIGEESVCAGEKSILTDNPTWIID [A8C] | 1.55
83 | FIGEESVDAGEKSILTDNPTWIID [A8D] | 2.72
84 | FIGEESVGAGEKSILTDNPTWIID [A8G] | 2.46
85 | FIGEESVKAGEKSILTDNPTWIID [A8K] | 2.35
86 | FIGEESVHAGEKSILTDNPTWIID [A8H] | 1.75
87 | FIGEESVYAGEKSILTDNPTWIID [A8Y] | 2.39
88 | FIGEESVLAGEKSILTDNPTWIID [A8L] | 2.08
89 | FIGEESVMAGEKSILTDNPTWIID [A8M] | 2.05
90 | FIGEESVEAGEKSILTDNPTWIID [A8E] | 2.79
91 | FIGEESVNAGEKSILTDNPTWIID [A8N] | 2.23
92 | FIGEESVFAGEKSILTDNPTWIID [A8F] | 1.84
93 | FIGEESVRAGEKSILTDNPTWIID [A8R] | 1.62
94 | FIGEESVSAGEKSILTDNPTWIID [A8S] | 2.3
